Assay results taken from patent publication US11278600B2, “Human alpha-galactosidase variants” (Codexis, Inc., priority 2014, dated 2022).

Tests used:
Format in all cases: biochemical
[1] = HTP-analysis of yeast culture supernatants, no challenge (MUGal hydrolysis); settings: activity of the variant/activity of WT GLA (SEQ ID NO: 5), yeast supernatant
Summary of the method: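 GLA variants expressed in yeast INVSc1, secreted into SD-Ura broth over 66-84 h at 30° C; clarified supernatants tested without challenge. Supernatant mixed with McIlvaine buffer pH 4.8 and 2 mM MUGal (citrate/KCl, pH 4.6), 37° C for 30-180 min, carbonate-quenched, fluorescence Ex 355/Em 448 nm.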

[2] = HTP-analysis of supernatants pretreated with acid (MUGal hydrolysis); settings: challenge at pH 4.2; activity of the variant/activity of WT GLA (SEQ ID NO: 5); yeast supernatant
Summary of the method: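 GLA variants were secreted from INVSc1 yeast grown 66-84 h at 30° C. in SD-Ura with 2% glucose; supernatants were mixed with McIlvaine buffer pH 3.3-4.3 and held at 37° C. for 1-3 h. Residual activity on MUGal at pH 4.8 was then measured by fluorescence.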

[3] = HTP-analysis of supernatants pretreated with base (MUGal hydrolysis); settings: challenge at pH 7.1; activity of the variant/activity of WT GLA (SEQ ID NO: 5); yeast supernatant
Summary of the method: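 GLA variants secreted from yeast INVSc1; culture supernatants pre-incubated with McIlvaine buffer pH 7.0–8.2 or 200 mM bicarbonate pH 9.1–9.7 at 37° C. for 1–18 h. Residual activity: MUGal (4 mM stock) hydrolysis at pH 4.3–4.8, 37° C., 30–180 min, carbonate quench; fluorescence Ex 355/Em 448 nm.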

B1: 188 (protein)
chain: LDNGLARTPTMGWLHWERFMCNLDCQEEPDSCISEKLFMEMAELMVSEGWKDAGYEYLCIDDCWMAPQRDSEGRLQADPQRFPHGIRQLANYVHSKGLKLGIYADVGNKTCAGFPGSFGYYDIDAQTFADWGVDLLKFDGCYCDSLENLADGYKHMSLALNRTGRSIVYSCEWPLYMWPFQKPNYTEIRQYCNHWRNFADIDDSWKSIKSILDWTSFNQERIVDVAGPGGWNDPDMLVIGNFGLSWNQQVTQMALWAIMAAPLFMSNDLRHISPQAKALLQDKDVIAINQDPLGKQGYQLRQGDNFEVWERPLSGLAWAVAMINRQEIGGPRSYTIAVASLGKGVACNPACFITQLLPEKRKLGFYEWTSRLRSHINPTGTVLLQLENTMQMSKDLLL
modifications: Synthetic Polypeptide sequence of Variant No. 188 of mature Human GLA
Relative Activity of GLA Variants After No Challenge (NC) [1]: + (+ = 0.5 to 1.5 relative activity over WT GLA (SEQ ID NO: 5)) | Relative Activity of GLA Variants After Challenge at pH 4.2 [2]: + (+ = 0.5 to 1.5 relative activity over WT GLA (SEQ ID NO: 5)) | Relative Activity of GLA Variants After Challenge at pH 7.1 [3]: + (+ = 0.5 to 1.5 relative activity over WT GLA (SEQ ID NO: 5))

B2: 190 (protein)
chain: LDNGLARTPTMGWLHWERFMCNLDCQEEPDSCISEKLFMEMAELMVSEGWKDAGYEYLCIDDCWMAPQRDSEGRLQADPQRFPHGIRQLANYVHSKGLKLGIYADVGNKTCAGFPGSFGYYDIDAQTFADWGVDLLKFDGCYCDSLENLADGYKHMSLALNRTGRSIVYSCEWPLYMHPFQKPNYTEIRQYCNHWRNFADIDDSWKSIKSILDWTSFNQERIVDVAGPGGWNDPDMLVIGNFGLSWNQQVTQMALWAIMAAPLFMSNDLRHISPQAKALLQDKDVIAINQDPLGKQGYQLRQGDNFEVWERPLSGLAWAVAMINRQEIGGPRSYTIAVASLGKGVACNPACFITQLLPVKRKLGFYEWTSRLRSHINPTGTVLLQLENTMQMSKDLLL
modifications: Synthetic Polypeptide sequence of Variant No. 190 of mature Human GLA
Relative Activity of GLA Variants After No Challenge (NC) [1]: ++ (++ = >1.5 to 2.5 relative activity over WT GLA (SEQ ID NO: 5)) | Relative Activity of GLA Variants After Challenge at pH 4.2 [2]: + (+ = 0.5 to 1.5 relative activity over WT GLA (SEQ ID NO: 5)) | Relative Activity of GLA Variants After Challenge at pH 7.1 [3]: ++ (++ = >1.5 to 2.5 relative activity over WT GLA (SEQ ID NO: 5))

B3: 40 (protein)
chain: LDNGLARTPTMGWLHWERFMCNLDCQEEPDSCISEKLFMEMAELMVSEGWKDAGYEYLCIDDCWMAPQRDSEGRLQADPQRFPHGIRQLANYVHSKGLKLGIYADVGNKTCAGFPGSFGYYDIDAQTFADWGVDLLKFDGCYCDSLENLADGYKHMSLALNRTGRSIVYSCEWPLYMWPFQKPNYTEIRQYCNHWRNFADIDDSWKSIKSILDWTSFNQERIVDVAGPGGWNDPDMLVIGNFGLSWNQQVTQMALWAIMAAPLFMSNDLRHISPQAKALLQDKDVIAINQDPLGKQGYQLRQGDNFEVWERPLSGLAWAVAMINRQEIGGPRSYTIAVASLGKGVACNPACFITQLLPVKRKLGFYEWTSRLRSHINPTGTVLLQLENTMQMSKDRLL
modifications: Synthetic Polypeptide sequence of Variant No. 40 of mature Human GLA
Relative Activity of GLA Variants After No Challenge (NC) [1]: ++ (++ = >1.5 to 2.5 relative activity over WT GLA (SEQ ID NO: 5)) | Relative Activity of GLA Variants After Challenge at pH 4.2 [2]: ++ (++ = >1.5 to 2.5 relative activity over WT GLA (SEQ ID NO: 5)) | Relative Activity of GLA Variants After Challenge at pH 7.1 [3]: ++ (++ = >1.5 to 2.5 relative activity over WT GLA (SEQ ID NO: 5))

B4: 191 (protein)
chain: LDNGLARTPTMGWLHWERFMCNLDCQEEPDSCISEKLFMEMAELMVSEGWKDAGYEYLCIDDCWMAPQRDSEGRLQADPQRFPHGIRQLANYVHSKGLKLGIYADVGNKTCAGFPGSFGYYDIDAQTFADWGVDLLKFDGCYCDSLENLADGYKHMSLALNRTGRSIVYSCEWPLYMSPFQKPNYTEIRQYCNHWRNFADIDDSWKSIKSILDWTSFNQERIVDVAGPGGWNDPDMLVIGNFGLSWNQQVTQMALWAIMAAPLFMSNDLRHISPQAKALLQDKDVIAINQDPLGKQGYQLRQGDNFEVWERPLSGLAWAVAMINRQEIGGPRSYTIAVASLGKGVACNPACFITQLLPVKRKLGFYEWTSRLRSHINPTGTVLLQLENTMQMSKDLLL
modifications: Synthetic Polypeptide sequence of Variant No. 191 of mature Human GLA
Relative Activity of GLA Variants After No Challenge (NC) [1]: + (+ = 0.5 to 1.5 relative activity over WT GLA (SEQ ID NO: 5)) | Relative Activity of GLA Variants After Challenge at pH 4.2 [2]: ++ (++ = >1.5 to 2.5 relative activity over WT GLA (SEQ ID NO: 5)) | Relative Activity of GLA Variants After Challenge at pH 7.1 [3]: + (+ = 0.5 to 1.5 relative activity over WT GLA (SEQ ID NO: 5))

B5: 189 (protein)
chain: LDNGLARTPTMGWLHWERFMCNLDCQEEPDSCISEKLFMEMAELMVSEGWKDAGYEYLCIDDCWMAPQRDSEGRLQADPQRFPHGIRQLANYIHSKGLKLGIYADVGNKTCAGFPGSFGYYDIDAQTFADWGVDLLKFDGCYCDSLENLADGYKHMSLALNRTGRSIVYSCEWPLYMWPFQKPNYTEIRQYCNHWRNFADIDDSWKSIKSILDWTSFNQERIVDVAGPGGWNDPDMLVIGNFGLSWNQQVTQMALWAIMAAPLFMSNDLRHISPQAKALLQDKDVIAINQDPLGKQGYQLRQGDNFEVWERPLSGLAWAVAMINRQEIGGPRSYTIAVASLGKGVACNPACFITQLLPVKRKLGFYEWTSRLRSHINPTGTVLLQLENTMQMSKDLLL
modifications: Synthetic Polypeptide sequence of Variant No. 189 of mature Human GLA
Relative Activity of GLA Variants After No Challenge (NC) [1]: + (+ = 0.5 to 1.5 relative activity over WT GLA (SEQ ID NO: 5)) | Relative Activity of GLA Variants After Challenge at pH 4.2 [2]: + (+ = 0.5 to 1.5 relative activity over WT GLA (SEQ ID NO: 5)) | Relative Activity of GLA Variants After Challenge at pH 7.1 [3]: + (+ = 0.5 to 1.5 relative activity over WT GLA (SEQ ID NO: 5))

B6: 41 (protein)
chain: LDNGLARTPTMGWLHWERFMCNLDCQEEPDSCISEKLFMEMAELMVSEGWKDAGYEYLCIDDCWMAPQRDSEGRLQADPQRFPHGIRQLANYVHSKGLKLGIYADVGNKTCAGFPGSFGYYDIDAQTFADWGVDLLKFDGCYCDSLENLADGYKHMSLALNRTGRSIVYSCEWPLYMWPFQKPNYTEIRQYCNHWRNFADIDDSWKSIKSILDWTSFNQERIVDVAGPGGWNDPDMLVIGNFGLSWNQQVTQMALWAIMAAPLFMSNDLRHISPQAKALLQDKDVIAINQDPLGKQGYQLRQGDNFEVWERPLSGLAWAVAMINRQEIGGPRSYTIAVASLGKGVACNPACFITQLLPVKRKLGFYEWTSRLRSHINPTGTVLLQLENTMQMSKDTLL
modifications: Synthetic Polypeptide sequence of Variant No. 41 of mature Human GLA
Relative Activity of GLA Variants After No Challenge (NC) [1]: + (+ = 0.5 to 1.5 relative activity over WT GLA (SEQ ID NO: 5)) | Relative Activity of GLA Variants After Challenge at pH 4.2 [2]: + (+ = 0.5 to 1.5 relative activity over WT GLA (SEQ ID NO: 5)) | Relative Activity of GLA Variants After Challenge at pH 7.1 [3]: + (+ = 0.5 to 1.5 relative activity over WT GLA (SEQ ID NO: 5))
